One assay has as its system DYT-TOR1A MEF EVs. The assay is described as follows: Quantitative LC-MS/MS proteomics of EVs from drug-treated DYT-TOR1A MEF cultures (ritonavir, salubrinal). The class given is cell-based, mouse. Also noted: key to RTV Corrective Direction / RTV Corrective Direction, Grwd1 / RTV Corrective Direction, Srrm2 / RTV Corrective Direction, Rbm17 / RTV Corrective Direction, Dcaf8 / RTV Corrective Direction, Edil3 / RTV Corrective Direction, Timp3 / RTV Corrective Direction, Heatr3 / RTV Corrective Direction, Brd4 / RTV Corrective Direction, P3h4 / RTV Corrective Direction, Pacsin3 / RTV Corrective Direction, Naa50 / RTV Corrective Direction, Lpar6 / RTV Corrective Direction, Ndrg1 / RTV Corrective Direction, Kntc1 / RTV Corrective Direction, Cdk11b / RTV Corrective Direction, Sumo1 / RTV Corrective Direction, Lsm4 / RTV Corrective Direction, Hmga2 / RTV Corrective Direction, Cstf1 / RTV Corrective Direction, Tes / RTV Corrective Direction, Sbno1 / RTV Corrective Direction, Unc119b / RTV Corrective Direction, Cfdp1 / RTV Corrective Direction, Sec61b: YES = protein abundance effect opposite to DYT/WT. The settings on record: EV protein abundance; for RTV Corrective Direction: DYT + RTV (ritonavir) vs DYT, direction compared with DYT/WT; for DYT + RTV/DYT Cohen's d: ritonavir (RTV)-treated DYT vs DYT.

In a further assay the test system is WT MEF EVs. The assay is described as follows: Quantitative LC-MS/MS proteomics of EVs from ISRIB-treated WT MEF cultures. The format is cell-based, mouse. Also noted: key to ISRIB and DYT Parallel Direction / ISRIB and DYT Parallel Direction, Ctdsp1 / ISRIB and DYT Parallel Direction, Pcdh19 / ISRIB and DYT Parallel Direction, Tspan7 / ISRIB and DYT Parallel Direction, Myo1e / ISRIB and DYT Parallel Direction, Plpp3 / ISRIB and DYT Parallel Direction, Sh3bp4 / ISRIB and DYT Parallel Direction, Dnajc7 / ISRIB and DYT Parallel Direction, Drg1 / ISRIB and DYT Parallel Direction, Maea: YES = protein abundance effect similar to DYT/WT. The conditions noted are these: EV protein abundance; for WT + ISRIB/WT Cohen's d: ISRIB-treated WT vs WT; for ISRIB and DYT Parallel Direction: WT + ISRIB vs WT, direction compared with DYT/WT.

B1: Cyb5r3 (protein, UniProt Q9DCN2 2-301, looked up)
NADH-cytochrome b5 reductase 3: GAQLSTLSHVVLSPVWFIYSLFMKLFQRSTPAITLENPDIKYPLRLIDKEVISPDTRRFRFALPSPQHILGLPIGQHIYLSTRIDGNLVIRPYTPVSSDDDKGFVDLVVKVYFKDTHPKFPAGGKMSQYLENMKIGDTIEFRGPNGLLVYQGKGKFAIRADKKSNPVVRTVKSVGMIAGGTGITPMLQVIRAVLKDPNDHTVCYLLFANQSEKDILLRPELEELRNEHSARFKLWYTVDKAPDAWDYSQGFVNEEMIRDHLPTPGEEPLILMCGPPPMIQFACLPNLERVGHPKERCFTF
B1: in the assay on DYT-TOR1A MEF EVs, the “RTV Corrective Direction” value was “YES” and the “DYT + RTV/DYT Cohen's d” value is given as 0.64. Further, in the assay on WT MEF EVs, the “WT + ISRIB/WT Cohen's d” value was found to be 0.64; the “ISRIB and DYT Parallel Direction” value is “YES”.

B2: Stxbp2 (protein, UniProt Q64324 1-593, looked up)
Syntaxin-binding protein 2: MAPLGLKAVVGEKILSGVIRSVKKDGEWKVLIMDHPSMRILSSCCKMSDILAEGITIVEDINKRREPIPSLEAIYLLSPTEKSVQALIADFQGTPTFTYKAAHIFFTDTCPEPLFSELGRSRLAKAVKTLKEIHLAFLPYEAQVFSLDAPHSTYNLYCPFRAGERGRQLDALAQQIATLCATLQEYPSIRYRKGPEDTAQLAHAVLAKLNAFKADTPSLGEGPEKTRSQLLIMDRAADPVSPLLHELTFQAMAYDLLDIEQDTYRYETTGLSESREKAVLLDEDDDLWVELRHMHIADVSKKVTELLKTFCESKRLTTDKANIKDLSHILKKMPQYQKELNKYSTHLHLADDCMKHFKGSVEKLCSVEQDLAMGSDAEGEKIKDAMKLIVPVLLDASVPPYDKIRVLLLYILLRNGVSEENLAKLIQHANVQSYSSLIRNLEQLGGTVTNSAGSGTSSRLERRERMEPTYQLSRWSPVIKDVMEDVVEDRLDRKLWPFVSDPAPVPSSQAAVSARFGHWHKNKAGVEARAGPRLIVYIVGGVAMSEMRAAYEVTRATEGKWEVLIGSSHILTPTRFLDDLKTLDQKLEGVALP
In the case of B2, in the assay on DYT-TOR1A MEF EVs, the “RTV Corrective Direction” value is given as “YES” and the “DYT + RTV/DYT Cohen's d” value amounted to 1.82. Further, in the assay with WT MEF EVs, the “WT + ISRIB/WT Cohen's d” value is listed as −0.96; the “ISRIB and DYT Parallel Direction” value was “YES”.

B3: Fh (protein, UniProt P97807 42-507, looked up)
Fumarate hydratase, …: ASQNSFRVEFDTFGELKVPTDKYYGAQTVRSTMNFKIGGATERMPIPVIQAFGILKRAAAEVNQEYGLDPKIASAIMKAADEVAEGKLNDHFPLVVWQTGSGTQTNMNVNEVISNRAIEMLGGELGSKKPVHPNDHVNKSQSSNDTFPTAMHIAAAVEVHKVLLPGLQKLHDALSAKSKEFAQVIKIGRTHTQDAVPLTLGQEFSGYVQQVQYAMVRIKAAMPRIYELAAGGTAVGTGLNTRIGFAEKVAAKVAALTGLPFVTAPNKFEALAAHDALVELSGAMNTAACSLMKIANDIRFLGSGPRSGLGELILPENEPGSSIMPGKVNPTQCEAMTMVAAQVMGNHVAVTVGGSNGHFELNVFKPMMIKNVLHSARLLGDASVSFTDNCVVGIQANTERINKLMNESLMLVTALNPHIGYDKAAKIAKTAHKNGSTLKETAIELGYLTAEQFDEWVKPKDMLGPK
Consider B3, for which, in the assay on DYT-TOR1A MEF EVs, the “RTV Corrective Direction” value was “YES” and the “DYT + RTV/DYT Cohen's d” value stood at 2.12. In addition, in the assay on WT MEF EVs, the “WT + ISRIB/WT Cohen's d” value is −0.28; the “ISRIB and DYT Parallel Direction” value was “YES”.

B4: Psmd4 (protein, UniProt O35226 1-376, looked up)
26S proteasome non-ATPase …: MVLESTMVCVDNSEYMRNGDFLPTRLQAQQDAVNIVCHSKTRSNPENNVGLITLANDCEVLTTLTPDTGRILSKLHTVQPKGKITFCTGIRVAHLALKHRQGKNHKMRIIAFVGSPVEDNEKDLVKLAKRLKKEKVNVDIINFGEEEVNTEKLTAFVNTLNGKDGTGSHLVTVPPGPSLADALISSPILAGEGGAMLGLGASDFEFGVDPSADPELALALRVSMEEQRQRQEEEARRAAAASAAEAGIATPGTEDSDDALLKMTINQQEFGRPGLPDLSSMTEEEQIAYAMQMSLQGTEFSQESADMDASSAMDTSDPVKEEDDYDVMQDPEFLQSVLENLPGVDPNNAAIRSVMGALASQATKDGKNDKKEEEKK
In the case of B4, in the assay with DYT-TOR1A MEF EVs, the “RTV Corrective Direction” value was “YES” and the “DYT + RTV/DYT Cohen's d” value is listed as −0.60. Moreover, in the assay with WT MEF EVs, the “WT + ISRIB/WT Cohen's d” value is 0.71; the “ISRIB and DYT Parallel Direction” value is listed as “YES”.

B5: Alad (protein, UniProt P10518 1-330, looked up)
Delta-aminolevulinic acid …: MHHQSVLHSGYFHPLLRSWQTAASTVSASNLIYPIFVTDVPDDVQPIASLPGVARYGVNQLEEMLRPLVEAGLRCVLIFGVPSRVPKDEQGSAADSEDSPTIEAVRLLRKTFPSLLVACDVCLCPYTSHGHCGLLSENGAFLAEESRQRLAEVALAYAKAGCQVVAPSDMMDGRVEAIKAALLKHGLGNRVSVMSYSAKFASCFYGPFRDAAQSSPAFGDRRCYQLPPGARGLALRAVARDIQEGADMLMVKPGLPYLDMVREVKDKHPELPLAVYQVSGEFAMLWHGAQAGAFDLRTAVLETMTAFRRAGADIIITYFAPQLLKWLKEE
Consider B5, for which, in the assay with DYT-TOR1A MEF EVs, the “RTV Corrective Direction” value was “YES” and the “DYT + RTV/DYT Cohen's d” value was 1.57. Moreover, in the assay with WT MEF EVs, the “WT + ISRIB/WT Cohen's d” value was −1.50; the “ISRIB and DYT Parallel Direction” value was “YES”.

B6: Eif4b (protein, UniProt Q8BGD9 1-611, looked up)
Eukaryotic translation …: MAASAKKKNKKGKTISLTDFLAEDGGTGGGSTYVPKPVSWADETDDLEGDVSTTWHSNDDDVYRAPPIDRSILPTAPRAAREPNIDRSRLPKSPPYTAFLGNLPYDVTEDSIKDFFRGLNISAVRLPREPSNPDRLKGFGYAEFEDLDSLLSALSLNEESLGNRRIRVDVADQAQDKDRDDRSFGRDRNRDSDKTDTDWRARPTTDSFDDYPPRRGDDSFGDKYRDRYDSDRYRDGYRDGYRDGPRRDMDRYGGRDRYDDRGSRDYDRGYDSRIGSGRRAFGSGYRRDDDYRGGGDRYEDRYDRRDDRSWSSRDDYSRDDYRRDDRGPPQRPRLNLKPRSAPKEDDASASTSQSSRAASIFGGAKPVDTAAREREVEERLQKEQEKLQRQLDEPKLDRRPRERHPSWRSEETQERERSRTGSESSQTGASATSGRNTRRRESEKSLENETLNKEEDCHSPTSKPPKPDQPLKVMPAPPPKENAWVKRSSNPPARSQSSDTEQPSPTSGGGKVAAVQPPEEGPSRKDGNKVDVVGATQGQAGSCSRGPGDGGSRDHWKDLDRKDGKKDQDSRSAPEPKKPEENPASKFSSASKYAALSVDGEDEDEGDDCTE
As to B6, in the assay with DYT-TOR1A MEF EVs, the “RTV Corrective Direction” value is “YES” and the “DYT + RTV/DYT Cohen's d” value is listed as −1.72. Also, in the assay on WT MEF EVs, the “WT + ISRIB/WT Cohen's d” value worked out at 3.88; the “ISRIB and DYT Parallel Direction” value is “YES”.

B7: Eef1e1 (protein, UniProt Q9D1M4 2-174, looked up)
Eukaryotic translation …: AAAAELRLLEKSLGLKPGNKYSAQGERQIPVLQTNNGPSLMGLSTIATHLVKQASKEHLLGSTAEEKAMVQQWLEFRVTRVDGHSSKEDTQTLLKDLNSYLEDKVYLAGHNITLADILLYYGLHRFIVDLTVQEKEKYLNVSRWFCHIQHYPDIRQHLSSIVFIKNRLYANSH
Take B7: in the assay on DYT-TOR1A MEF EVs, the “RTV Corrective Direction” value was “YES” and the “DYT + RTV/DYT Cohen's d” value is recorded as 16.90. Further, in the assay with WT MEF EVs, the “WT + ISRIB/WT Cohen's d” value is given as −3.65; the “ISRIB and DYT Parallel Direction” value is “YES”.

B8: Ddx3x (protein, UniProt Q62167 2-662, looked up)
ATP-dependent RNA helicase …: SHVAVENALGLDQQFAGLDLNSSDNQSGGSTASKGRYIPPHLRNREATKGFYDKDSSGWSSSKDKDAYSSFGSRGDSRGKSSFFGDRGSGSRGRFDDRGRGDYDGIGGRGDRSGFGKFERGGNSRWCDKSDEDDWSKPLPPSERLEQELFSGGNTGINFEKYDDIPVEATGNNCPPHIESFSDVEMGEIIMGNIELTRYTRPTPVQKHAIPIIKEKRDLMACAQTGSGKTAAFLLPILSQIYADGPGEALRAMKENGRYGRRKQYPISLVLAPTRELAVQIYEEARKFSYRSRVRPCVVYGGAEIGQQIRDLERGCHLLVATPGRLVDMMERGKIGLDFCKYLVLDEADRMLDMGFEPQIRRIVEQDTMPPKGVRHTMMFSATFPKEIQMLARDFLDEYIFLAVGRVGSTSENITQKVVWVEEIDKRSFLLDLLNATGKDSLTLVFVETKKGADSLEDFLYHEGYACTSIHGDRSQRDREEALHQFRSGKSPILVATAVAARGLDISNVKHVINFDLPSDIEEYVHRIGRTGRVGNLGLATSFFNERNINITKDLLDLLVEAKQEVPSWLENMAFEHHYKGSSRGRSKSSRFSGGFGARDYRQSSGASSSSFSSSRASSSRSGGGGHGGSRGFGGGGYGGFYNSDGYGGNYNSQGVDWWGN
As to B8, in the assay on DYT-TOR1A MEF EVs, the “RTV Corrective Direction” value is given as “YES” and the “DYT + RTV/DYT Cohen's d” value came to 2.24. In the assay with WT MEF EVs, the “WT + ISRIB/WT Cohen's d” value is on record as −1.08; the “ISRIB and DYT Parallel Direction” value is given as “YES”.

These data come from US20260266848A1, “COMPOSITIONS AND METHODS FOR DIAGNOSING AND TREATING DYSTONIA” (Duke University, priority 2023, published 2026).
